Test results published in US10561706B2, “Isolated polypeptide and compositions comprising same” (B. G. NEGEV TECHNOLOGIES AND APPLICATIONS LTD., AT …, priority 2015, dated 2020).

What was measured:
SOD1^G93A [1] = target: T1, SOD1^G93A (Homo sapiens, UniProt P00441, G94A); test: TEM analysis of SOD1^G93A aggregate morphology; assay type: biochemical; conditions: for morphology of SOD1^G93A aggregates by TEM versus SOD1^G93A alone: co-incubation with peptide, end of aggregation assay (FIG. 4B); for morphology of SOD1^G93A aggregates by TEM: 64 h at 37° C.
T1 construct: 6His (N); made in house; host or cells: E. coli BL21
T1 sequence (P00441 2-154 G94A): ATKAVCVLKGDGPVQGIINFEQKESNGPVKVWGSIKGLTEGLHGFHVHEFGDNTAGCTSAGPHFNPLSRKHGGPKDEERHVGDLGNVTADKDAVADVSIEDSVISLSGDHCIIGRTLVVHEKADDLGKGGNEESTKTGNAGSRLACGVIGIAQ
Description: Samples for TEM imaging were prepared as follows: at the end of the aggregation assay, 2.5 μl samples (diluted 5-fold) were deposited on a carbon-coated copper 300 mesh. After 1 min, the excess liquid was carefully blotted by a filter paper. Followed 1 min drying at the ambient temperature, 5 μl of 2% uranyl acetate was added. After 1 min, the excess of the salt solution was carefully removed with a filter paper. The imaging was performed using a Tecnai G2 12 BioTWIN (FEI) transmission electron microscope with an acceleration voltage of 120 kV. Depending on the aggregate size, different magnifications were used. The visible features were sensitive to the electron beam exposure, indicating their organic origin.
(§1) The effect of the binding of SOD1-derived peptides to misfolded SOD1 on kinetics of SOD1 aggregation was tested. The time course of SOD1^G93A aggregation was followed by monitoring the fluorescence of a thioflavin T (ThT) probe.

SOD1^G93A [2] = target: T1, SOD1^G93A; test: ThT aggregation assay of SOD1^G93A with SOD1-derived peptides; assay type: biochemical; conditions: for ThT response / amyloid-like aggregation of SOD1^G93A on co-incubation with peptide: SOD1^G93A 50 μM, up to 64 h
Description: Prior to the aggregation assay, all mixtures containing protein and/or peptide were filtered through a 0.22 μm Millex-GV (PVDF) syringe filter, 4 mm (Millipore, USA). SOD1^G93A (50 μM) or peptide (600 μM) were incubated in 200 μl of 20 mM […] buffer, pH 7.0, 0.1 M NaCl, 5 mM EDTA, 1 mM TCEP, and 1% DMF in the presence of 50 μM Thioflavin T (Sigma Aldrich, Israel) in a black 96-well plate at 37° C. with continuous shaking (set to fast) using a SpectraMax Paradigm (Molecular Devices) ELISA reader. The fluorescence (Exc. 440 nm; Em. 485 nm) was measured at 5 min intervals.
as §1

SOD1^WT [3] = target: T2, SOD1^WT (Homo sapiens, UniProt P00441); test: Peptide binding to fluorescently labeled SOD1^WT by microscale thermophoresis (MST); conditions: SOD1^WT 200 nM, 1.5 h at r.t., peptide 0-100 μM
T2 construct: 6His (N); made in house; host or cells: E. coli BL21
T2 sequence (P00441 whole entry): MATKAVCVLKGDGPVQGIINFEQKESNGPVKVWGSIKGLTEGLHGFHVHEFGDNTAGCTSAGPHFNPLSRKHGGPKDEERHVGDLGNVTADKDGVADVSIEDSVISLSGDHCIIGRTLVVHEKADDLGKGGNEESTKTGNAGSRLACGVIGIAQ
Excerpt: (§2) Peptides were synthesized by GL Biochem Ltd. (Shanghai, China). Peptide identity and purity (>90%) was confirmed by MS and HPLC analyses. For microscale thermophoresis (MST) analysis, the proteins (SOD1^WT and SOD1^G93A) were labeled with BLUE fluorescent dye NT-495-NHS (lysine chemistry) using a Monolith NT protein labeling kit Blue-NETS (Nano Temper Technologies, Munchen, Germany) at a protein (monomer):dye ratio of 1:3 as recommended by the manufacturer.
(§3) The assessment of peptide binding to the proteins was carried out using Monolith NT.115 (NanoTemper Technologies, Munchen, Germany). […] The binding data were analyzed by a non-linear regression using a logistic (three parameter) function implemented in Prism6 (GraphPad) program.
(§4) The binding of synthetic peptides to fluorescently labeled SOD1^WT or SOD1^G93A was assessed using a microscale thermophoresis technique (MST). Two overlapping peptides, designated SE-11 (SEQ ID NO: 6) (SOD1 aa. 90-109, […]) and SE-12 (SEQ ID NO: 7) (SOD1 aa. 106-125, […]), inflicted a specific, dose-dependent increase in the fluorescence of the target proteins (FIGS. 3A-D).

SOD1^G93A [4] = target: T1, SOD1^G93A; test: Peptide binding to fluorescently labeled SOD1^G93A by microscale thermophoresis (MST); conditions: SOD1^G93A 300 nM, 1.5 h at r.t., peptide 0-100 μM
Excerpt: as §2, §3, §4

SOD1^WT [5] = target: T2, SOD1^WT; test: Immunoprecipitation (B8H10 mAb) analysis of SOD1^WT misfolding; assay type: biochemical; conditions: peptide 600 μM, 4 or 37° C.; effect more prominent at 4° C.
Description: Purified recombinant SOD1^G93A or SOD1^WT proteins […] were incubated for 4 h in 50 mM Tris-HCl buffer, pH 7.4, 150 mM NaCl, 1 mM EDTA, in the presence or absence of peptide SE-12 (SEQ ID NO: 7) (600 μM) at 4 or 37° C. After incubation, 10 μg of SOD1 proteins were transferred into immunoprecipitation (IP) buffer (50 mM Tris-HCl, pH 7.4, 150 mM NaCl, 1 mM EDTA, and 0.5% Nonidet P-40 plus protease inhibitors) and incubated at 4° C. overnight with B8H10 monoclonal antibody (MediMabs) crosslinked to protein G beads (Dynabeads, Invitogen) using dimethyl pimelimidate (Pierce) according to the manufacturer's instructions. The beads were magnetically isolated and washed three times with IP buffer. Samples were eluted by boiling in 2× sample buffer. Both bound and unbound IP fractions were then separated by SDS-PAGE, transferred to a nitrocellulose membrane and probed with goat anti-SOD1 antibody (C-17; Santa Cruz Biotechnology).
To test the function of the exposed ^106LSGDHC^111 epitope on misfolding of other SOD1 molecules, the effect of the SE-12 (SEQ ID NO: 7) peptide on SOD1 misfolding was tested using immunoprecipitation with a mAb (B8H10) that specifically recognizes misfolded SOD1. […] The effect of the peptide was more prominent at 4° C., when the intrinsic rate of SOD1^WT misfolding is low, than at 37° C. […]

[6] = 1:12 SOD1^G93A:peptide molar ratio

Sequence | morphology of SOD1^G93A aggregates by TEM versus SOD1^G93A alone (SOD1^G93A [1]) | ThT response of SOD1^G93A (SOD1^G93A [2]; low peptide:SOD1 molar ratios, 37° C., continuous shaking) | ThT response of SOD1^G93A (SOD1^G93A [2]; peptide:SOD1 molar ratios higher than 3, compared to SOD1^G93A alone) | change in fluorescence of labeled SOD1^WT (peptide binding) (SOD1^WT [3]) | change in fluorescence of labeled SOD1^G93A (peptide binding) (SOD1^G93A [4]) | ThT response / amyloid-like aggregation of SOD1^G93A on co-incubation with peptide (SOD1^G93A [2]; 37° C., continuous shaking) | morphology of SOD1^G93A aggregates by TEM (SOD1^G93A [1]; [6]) | morphology of SOD1^G93A aggregates by TEM (SOD1^G93A [1]; low peptide:SOD1 molar ratio (1:0.2 SOD1^G93A:peptide)) | amount of misfolded SOD1^WT immunoprecipitated by B8H10 (SOD1^WT [5])
EDSVISLSGDHCIIGRT (listed as Homo sapiens) [SE-21, SOD1-derived peptide] | different morphology (size) | – | – | – | – | did not prevent aggregation | – | – | –
IIGRTLVVHEKADD (listed as Homo sapiens) [SE-19, SOD1-derived peptide] | morphology was different | – | – | – | – | formation of amyloid-like (ThT-responsive) aggregates | – | – | –
LSGDHCIIGRTLVVHEKADD (listed as Homo sapiens) [SE-12, 20-mer peptide, SOD1 aa; 106-125] | – | – | – | increase in fluorescence was observed | increase in fluorescence was observed | inhibited the SOD1^G93A-triggered ThT response and fibril formation in a dose-dependent manner | amorphous aggregates were detected by TEM | – | significantly increased the amount of accumulated misfolded species

Second part, led by results:

morphology of SOD1^G93A aggregates by TEM versus SOD1^G93A alone (SOD1^G93A [1]) | ThT response of SOD1^G93A (SOD1^G93A [2]; low peptide:SOD1 molar ratios, 37° C., continuous shaking) | ThT response of SOD1^G93A (SOD1^G93A [2]; peptide:SOD1 molar ratios higher than 3, compared to SOD1^G93A alone) | change in fluorescence of labeled SOD1^WT (peptide binding) (SOD1^WT [3]) | change in fluorescence of labeled SOD1^G93A (peptide binding) (SOD1^G93A [4]) | Sequence | ThT response / amyloid-like aggregation of SOD1^G93A on co-incubation with peptide (SOD1^G93A [2]; 37° C., continuous shaking) | morphology of SOD1^G93A aggregates by TEM (SOD1^G93A [1]; [6]) | morphology of SOD1^G93A aggregates by TEM (SOD1^G93A [1]; low peptide:SOD1 molar ratio (1:0.2 SOD1^G93A:peptide)) | amount of misfolded SOD1^WT immunoprecipitated by B8H10 (SOD1^WT [5])
morphology was different | – | – | – | – | DKDGVADVSIEDSV (listed as Homo sapiens) [SE-20, SOD1-derived peptide] | formation of amyloid-like (ThT-responsive) aggregates | – | – | –
– | inhibited the ThT response of SOD1^G93A | significantly enhanced ThT response | only with SOD1^G93A | effect was obtained | DKDGVADVSIEDSVISLSGD (listed as Homo sapiens) [SE-11, 20-mer peptide, SOD1 aa; 90-109] | – | large spherulites (0.5-1.0 μm diameter) | suppressed the formation of characteristic fibril-like aggregates | –
